{"source": "patent US20030167486", "proteins": {"B1": {"name": "human BACE (protein)", "chain": "ETDEEPEEPGRRGSFVEMVDNLRGKSGQGYYVEMTVGSPPQTLNILVDTGSSNFAVGAAPHPFLHRYYQRQLSSTYRDLRKGVYEPYTQGKWEGELGTDLVSIPHGPNVTVRANIAAITESDKFFINGSNWEGILGLAYAEIARPDDSLEPFFDSLVKQTHVPNLFSLQLCGAGFPLNQSEVLASVGGSMIIGGIDHSLYTGSLWYTPIRREWYYEVIIVRVEINGQDLKMDCKEYNYDKSIVDSGTTNLRLPKKVFEAAVKSIKAASSTEKFPDGFWLGEQLVCWQAGTTPWNIFPVISLYLMGEVTNQSFRITILPQQYLRPVEDVATSQDDCYKFAISQSSTGTVMGAVIMEGFYVVFDRARKRIGFAVSACHVHDEFRTAAVEGPFVTLDMEDCGYNIPQTDESTLMTIAYVMAAICALFMLPLCLMVCQWRCLRCLRQQHDDFADDISLLK"}}, "target": "human APP London (V717F), P05067"}
{"protein": "B1", "values": [{"measurement": "12 kD beta-secretase fragment of APP on Western blot of brain homogenate", "value": "the 12 kD beta-secretase fragment of APP is strongly increased due to expression of transgenic beta-secretase"}, {"measurement": "sAPP alpha and sAPP beta fragments in supernatants of organotypic cerebellar slice cultures (ELISA)", "value": "the over-expression of beta-secretase in APP London single transgenic mice induces a preferential cleavage of APPV717F at the beta cut as demonstrated by the lack of sAPPalpha fragment detection and the increase of sAPPbeta"}]}
